These results are taken from PMC10308643, “Nesfatin-3 possesses divalent metal ion binding properties, which remain hidden in the nucleobindin-2 precursor protein” (Cell Communication and Signaling : CCS, 2023).

Values joined by “and” are separate entries in the source; they are usually repeats but may differ in a detail not shown here. Equal values may be shown once.

Data set [1] deals with nesfatin-3 from Gallus gallus (Gallus gallus). In words: AUC; sedimentation velocity, c(s) analysis; 0.5, 0.75 and 1.0 mg/ml protein in 20 mM Tris pH 7.5, 150 mM NaCl, 5 mM EDTA (apo form); 20 °C, 50 000 rpm; monomer-dimer.
The target is the same in data set [2]. Kind of data set: AUC; sedimentation velocity, c(s) analysis; 0.5, 0.75 and 1.0 mg/ml protein in 20 mM Tris pH 7.5, 150 mM NaCl, 100 µM ZnCl2; 20 °C, 50 000 rpm; monomer-dimer(-tetramer).
Data set [3] has the same target. In words: AUC; sedimentation velocity, c(s) analysis; 0.5, 0.75 and 1.0 mg/ml protein in 20 mM Tris pH 7.5, 150 mM NaCl, 800 µM ZnCl2; 20 °C, 50 000 rpm; monomer-dimer(-tetramer).
The target is the same in data set [4]. Kind of data set: AUC; sedimentation velocity, c(s) analysis; 0.5, 0.75 and 1.0 mg/ml protein in 20 mM Tris pH 7.5, 150 mM NaCl, 300 µM ZnCl2; 20 °C, 50 000 rpm; monomer-dimer.
For data set [5] the target is unchanged. Kind of data set: AUC; sedimentation velocity, c(s) analysis; 0.5, 0.75 and 1.0 mg/ml protein in 20 mM Tris pH 7.5, 150 mM NaCl, 10 mM CaCl2; 20 °C, 50 000 rpm; monomer-dimer.
The target is the same in data set [6]. Kind of data set: AUC; sedimentation velocity, c(s) analysis; 0.5, 0.75 and 1.0 mg/ml protein in 20 mM Tris pH 7.5, 150 mM NaCl, 10 mM MgCl2; 20 °C, 50 000 rpm; monomer-dimer.
Data set [7] deals with the molecule itself. The data set is described as above.
Data set [8] deals with the molecule itself. Kind of data set: AUC; sedimentation velocity, c(s) analysis; 0.5, 0.75 and 1.0 mg/ml protein in 20 mM Tris pH 7.5, 150 mM NaCl, 5 mM EDTA (apo form); 20 °C, 50 000 rpm; monomer-dimer.
Data set [9] deals with the molecule itself. The data set is described as above. This is another data set of the same source.

Consider “nesfatin-3 from Gallus gallus (domain or fragment)”, for which the percent dimer in data set [1] is 75% and 76% and 77%; in [2] it was 74% and 80% and 79%; in data set [3] it was 90% and 91% and 88%; in data set [4], 59% and 64% and 70%; in data set [5], 76% and 77% and 74%; in [6], 100% and 83% and 92%. Besides, the stoichiometry N – broadly, a count of units in the complex or per binding partner – in data set [1] is 2. Besides, the dimer-to-monomer ratio (dimer:monomer) in data set [6] is 9.

B1: nesfatin-3 from Homo sapiens (domain or fragment, UniProt P80303 190-420, looked up)
chain: EYLKTLNEEKRKEEESKFEEMKKKHENHPKVNHPGSKDQLKEVWEETDGLDPNDFDPKTFFKLHDVNSDGFLDEQELEALFTKELEKVYDPKNEEDDMVEMEEERLRMREHVMNEVDTNKDRLVTLEEFLKATEKKEFLEPDSWETLDQQQFFTEEELKEYENIIALQENELKKKADELQKQKEELQRQHDQLEAQKLEYHQVIQQMEQKKLQQGIPPSGPAGELKFEPHI
notes: also called hsNesfatin-3; apo-hsNesfatin-3; source: expressed from pQE-80L/HRV3C and purified as reported previously [16, 17]
For B1, the percent dimer in data set [7] and in data set [9] was 100% throughout. In [8], the “stoichiometry N” value came out at 2.
